Measured values from PMC9825171 (Nucleic Acids Research, 2022).

B1: 198–523: human L3MBTL3 fragment, the MBT domains (198–523) (protein, UniProt Q96JM7 198-523, looked up, fragment)
chain: QDVRILRGSQRARRKRRGDSAVLKQGLPPKGKKAWCWASYLEEEKAVAVPAKLFKEHQSFPYNKNGFKVGMKLEGVDPEHQSVYCVLTVAEVCGYRIKLHFDGYSDCYDFWVNADALDIHPVGWCEKTGHKLHPPKGYKEEEFNWQTYLKTCKAQAAPKSLFENQNITVIPSGFRVGMKLEAVDKKNPSFICVATVTDMVDNRFLVHFDNWDESYDYWCEASSPHIHPVGWCKEHRRTLITPPGYPNVKHFSWDKYLEETNSLPAPARAFKVKPPHGFQKKMKLEVVDKRNPMFIRVATVADTDDHRVKVHFDGWNNCYDYWIDAD
B2: RITA1: corepressor, RBPJ interacting Tubulin associated protein 1 (protein, UniProt Q96K30 1-269, looked up)
RBPJ-interacting and …: MKTPVELAVSGMQTLGLQHRCRGGYRVKARTSYVDETLFGSPAGTRPTPPDFDPPWVEKANRTRGVGKEASKALGAKGSCETTPSRGSTPTLTPRKKNKYRPISHTPSYCDESLFGSRSEGASFGAPRMAKGDAAKLRALLWTPPPTPRGSHSPRPREAPLRAIHPAGPSKTEPGPAADSQKLSMGGLHSSRPLKRGLSHSLTHLNVPSTGHPATSAPHTNGPQDLRPSTSGVTFRSPLVTSRARSVSISVPSTPRRGGATQKPKPPWK
B3: 1–523: human L3MBTL3 fragment, N-terminal region through the MBT domains (residues 1–523) (protein, UniProt Q96JM7 1-523, looked up, fragment)
chain: MTESASSTSGQEFDVFSVMDWKDGVGTLPGSDLKFRVNEFGALEVITDENEMENVKKATATTTWMVPTAQEAPTSPPSSRPVFPPAYWTSPPGCPTVFSEKTGMPFRLKDPVKVEGLQFCENCCQYGNVDECLSGGNYCSQNCARHIKDKDQKEERDVEEDNEEEDPKCSRKKKPKLSLKADTKEDGEERDDEMENKQDVRILRGSQRARRKRRGDSAVLKQGLPPKGKKAWCWASYLEEEKAVAVPAKLFKEHQSFPYNKNGFKVGMKLEGVDPEHQSVYCVLTVAEVCGYRIKLHFDGYSDCYDFWVNADALDIHPVGWCEKTGHKLHPPKGYKEEEFNWQTYLKTCKAQAAPKSLFENQNITVIPSGFRVGMKLEAVDKKNPSFICVATVTDMVDNRFLVHFDNWDESYDYWCEASSPHIHPVGWCKEHRRTLITPPGYPNVKHFSWDKYLEETNSLPAPARAFKVKPPHGFQKKMKLEVVDKRNPMFIRVATVADTDDHRVKVHFDGWNNCYDYWIDAD
B4: 1–197: human L3MBTL3 fragment, the N-terminus (1–197) (protein, UniProt Q96JM7 1-197, looked up, fragment)
chain: MTESASSTSGQEFDVFSVMDWKDGVGTLPGSDLKFRVNEFGALEVITDENEMENVKKATATTTWMVPTAQEAPTSPPSSRPVFPPAYWTSPPGCPTVFSEKTGMPFRLKDPVKVEGLQFCENCCQYGNVDECLSGGNYCSQNCARHIKDKDQKEERDVEEDNEEEDPKCSRKKKPKLSLKADTKEDGEERDDEMENK

Tests used:
RBPJ (53–474) = RBPJ (53–474) (Mus musculus, UniProt P31266); assay: ITC binding of L3MBTL3 constructs and peptides to native RBPJ; settings: 25°C; for K / Kd: 50 mM sodium phosphate pH 6.5, 150 mM NaCl, one site binding model; for K: mean of at least three independent experiments ± SD, NBD = no binding detected; for Kd: mean of at least three independent experiments
Chain of RBPJ (53–474) (P31266 53-474): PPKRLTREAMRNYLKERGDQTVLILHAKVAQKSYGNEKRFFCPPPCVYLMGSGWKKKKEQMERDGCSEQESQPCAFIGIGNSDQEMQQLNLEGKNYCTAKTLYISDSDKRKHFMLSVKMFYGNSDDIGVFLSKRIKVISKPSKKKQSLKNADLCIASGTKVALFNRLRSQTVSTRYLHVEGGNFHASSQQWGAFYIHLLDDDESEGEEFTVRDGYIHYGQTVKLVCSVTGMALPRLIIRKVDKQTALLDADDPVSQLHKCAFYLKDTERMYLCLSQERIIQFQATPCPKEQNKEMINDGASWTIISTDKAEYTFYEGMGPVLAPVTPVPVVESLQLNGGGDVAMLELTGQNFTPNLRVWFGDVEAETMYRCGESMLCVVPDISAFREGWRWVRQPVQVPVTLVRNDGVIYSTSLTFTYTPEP

RBPJ = settings: read-out: affinity for RBPJ; ref [19],[20]; cited from earlier work
[1] = pH 6.5, mean of at least three independent experiments ± SD

Molecule	binding to RBPJ, in words (RBPJ (53–474))	K (RBPJ (53–474))	Kd (RBPJ) [µM]	Kd (RBPJ (53–474)) [µM]	ΔG° (RBPJ (53–474); [1]) [kcal/mol]	–TΔS° (RBPJ (53–474); [1]) [kcal/mol]	ΔH° (RBPJ (53–474); [1]) [kcal/mol]
B1	no detectable binding	NBD					
B2			~1				
B3		5.4 ± 0.9 × 10^5 M^−^1		1.9	-7.7 ± 0.2	2.9 ± 1.8	
B4		6.6 ± 0.3 × 10^5 M^−^1		1.5	-7.9 ± 0.03	-0.7 ± 0.1	-7.2 ± 0.1
